Where “and” joins values, the source holds several entries; their conditions need not be identical. Equal values may be shown once. Entries after “also recorded” stand apart in the source; their conditions may differ.

Data set [1] relates to NOD mice receiving spleen cells from diabetic donors. The experiment in a line: Adoptive transfer of diabetes in NOD mice. Format: in vivo. The text has this: For the adoptive transfer of diabetes experiments, NOD mice were obtained from Taconic Farms (Germantown, N.Y.) or from the Joslin Diabetes Center (Boston, Mass.). Spontaneously diabetic (D) females of recent onset (13–20 weeks of age) were used as spleen cell donors and 8 week old nondiabetic (Y) females served as recipients. Spleen cells from 4 week old nondiabetic (Y) female donors which fail to transfer disease were used as a negative control.
Recipient mice were placed on acidified water (1:8400 dilution of concentrated HCl in water) one week prior to sublethal irradiation (775 rad) performed in split doses (300 rad, 300 rad, and 175 rad) on each of three days (day −2, −1, and the day of transfer), in order to minimize any incidence of intestinal infection subsequent to high dose irradiation (Gamma Cell 1000 Cesium ^137 source, Nordion International, Inc., Ontario, Canada). Spleens were harvested from diabetic donors or from nondiabetic controls, cell suspensions made and red cells lysed with Hemolytic Geys solution. […] Another group received PBS alone without cells transferred. The fusion protein LFA-3Ig (LFA-3TIP) was isolated and purified as described in PCT US92/02050 and Miller et al., 1993 [36]. […] Diabetes onset was monitored as described above.

The test system of data set [2] is dual responder allergic sheep. The experiment in a line: Sheep model of airways hyper-responsiveness (Ascaris suum antigen challenge). The format is in vivo. The protocol: Experiments were performed essentially as described by Abraham et al.. […] To measure breathing mechanics and physical changes in the airways, the sheep were restrained in a prone position with heads immobilized. A balloon catheter was advanced through one nostril under topical anesthesia with 2% lidocaine solution to the lower esophagus, and a cuffed endotracheal tube was advanced through the other nostril (using a flexible fiberoptic bronchoscope as a guide) for the measurement of airway mechanics and during aerosol challenges. Pleural pressure was estimated with the esophageal balloon catheter (filled with 1 ml of air) positioned 5–10 cm from the gastroesophageal junction. In this position, end expiratory pleural pressure ranged between −2 and −5 cm H2O. Once the balloon was placed, it was secured so that it remained in position for the duration of the experiment. Lateral pressure in the trachea was measured with a sidehole catheter, (inner diam. 2.5 mm) advanced through and positioned distal to the tip of the endotracheal tube. Transpulmonary pressure (the difference between tracheal and pleural pressure) was measured with a differential pressure transducer catheter system (MP45, Validyne, Northridge, Calif.). […] Pulmonary resistance (RL) was measured by connecting the proximal end of the endotracheal tube to a Fleich pneumotachograph (Dyna Sciences, Blue Bell Pa.). Signals indicating flow and transpulmonary pressure were recorded on an oscilloscope recorder (Model DR-12; Electronics for Medicine, White Plains, N.Y.) linked to a computer for automatic calculation of pulmonary resistance (RL) from transpulmonary pressure, respiratory volume (obtained by digital integration) and flow by the mid-volume technique, analyzed from 5–10 breaths. Thoracic gas volume (Vtg) was measured immediately after determination of RL in a constant volume body plethysmograph. Specific lung resistance (SRL) was calculated from these values (SRL=Vtg×RL).
Airway responsiveness was determined by performing dose response curves to inhaled carbachol. The dose response curves were plotted using measurements of SRL taken immediately after inhalation of buffer (PBS) alone and after each consecutive administration of 10 breaths of increasing concentrations of carbachol in PBS. The concentrations of carbachol were 0.25%, 0.5%, 1.0%, 2.0% and 4.0% wt/vol in PBS. The provocation test was discontinued when SRL increased over 400% from the post-PBS value or after the highest carbachol concentration had been administered. Airway responsiveness was determined by calculating from the dose response curves the cumulative carbachol dose in breath units (BU) that increased specific lung resistance 400% over the post buffer value (PD400%). One breath unit was defined as one breath of a 1% wt/vol carbachol solution.
Each sheep was subjected to a trial as a control in which a placebo (PBS without additive) was used as a pretreatment 30 minutes before allergen challenge with Ascaris suum antigen (Greer Diagnostics, Lenoir, N.C.). The antigen solution was delivered as an aerosol using a disposable medical nebulizer (RAINDROP®, Puritan Bennett, Lenexa, Kans.) that provided an aerosol with a mass median aerodynamic diameter of 3.2 μM (geometric SD 1.9) as determined by an Andersen cascade impactor. The Ascaris suum extract was diluted in PBS to a concentration of 82,000 Protein Nitrogen Units(PNU)/ml. The output of the nebulizer was directed into a plastic T-tube, one end of which was connected to the inspiratory port of a Harvard respirator. A dosimeter connected to the nebulizer consisting of a solenoid valve and a 20 psi compressed air source and the solenoid valve was activated at the beginning of the inspiratory cycle of the Harvard respirator for one second. The aerosol delivered at a tidal volume of 500 ml and a rate of 20 breaths per min. for 20 min. Each sheep was challenged with an equivalent dose of antigen (400 breaths) in the control and VCAM1-IgG1 trials. […]

The subject of data set [3] is cotton top tamarins (CTTs) exhibiting symptoms of spontaneous colitis. The experiment in a line: Cotton top tamarin trials: acute inflammation index from colon biopsies. Conditions: for Day 0 AII (acute inflammation index) / Day 10 AII (acute inflammation index): individual treated CTTs. Format: in vivo. Set-up: Day 0 AII (acute inflammation index) / Day 10 AII (acute inflammation index): scale not given here. The protocol: Five CTTs received HP1/2 and five received placebo, by intravenous injection. The CTTs receiving HP1/2 were injected with 1 mg HP1/2 per day (i.e., about 2 mg/kg/day, based on approximate half-kilogram weight of a CTT) for eight days (on Days 0, 1, 2, 3, 4, 5, 6, and 7 of the trial). Colon tissue samples obtained from the animals were biopsied every other day (on Days 0, 2, 4, 6, 8, and 10 of the trial). Data from the biopsies were used to determine an acute inflammation index for each animal, giving a semi-quantitative analysis of the course of the colitis. (See, Madara et al..) The inflammation indices before the trial began (Day 0) and at the end of the trial at Day 10 are set forth in Table II, below: (“Treated CTTs” received antibody-HP1/2; “Control CTTs” received placebo) The trial described in Example III was repeated using 14 CTTs, 7 receiving HP1/2 and 7 receiving placebo.

Another data set has as its target VLA-4 (Homo sapiens, UniProt P13612). The data set can be described thus: VLA-4-mediated T cell activation. Format: cell-based.
The test system of a further data set is CTT VLA4 on CTT PBLs. The data set can be described thus: FACS analysis of binding of anti-VLA-4 monoclonal antibodies to CTT peripheral blood mononuclear leukocytes. More on the design: species or system cotton top tamarin. How it is done:
Blood samples (3 ml) from CTTs were heparinized and the CTT peripheral blood mononuclear leukocytes (PBLs) were isolated using a Ficoll-Hypaque gradient (Pharmacia) according to the manufacturer's instructions for isolation of human PBLs. CTT PBLs were examined for their ability to bind to the murine anti-human VLA-4 monoclonal antibodies HP1/2 and HP2/1 by FACS analysis using a Becton Dickenson FACStar and standard techniques (see, e.g., Lobb et al., 1991a).
Background: A flow cytometer gives signals particle by particle.

The next data set deals with VCAM-1-expressing cells. The experiment in a line: Leukocyte adhesion to VCAM-1-expressing cells. Format: cell-based.
Setting [4] is: 15 mg aerosol 2, 8 and 24 h after antigen challenge, listed as VCAM-Ig.
[5] abbreviates: 30 mg aerosol 2 and 24 h after antigen challenge (optimal dose), listed as VCAM-Ig.
[6] abbreviates: 30 mg aerosol 30 min before and 8 h after antigen challenge, listed as VCAM-Ig.
Setting [7] is: 30 mg aerosol 30 min before antigen challenge.
Where [8] appears, read: 60 mg aerosol 30 min before antigen challenge, listed as VCAM-Ig.

Chain of VLA-4 (P13612 34-1032): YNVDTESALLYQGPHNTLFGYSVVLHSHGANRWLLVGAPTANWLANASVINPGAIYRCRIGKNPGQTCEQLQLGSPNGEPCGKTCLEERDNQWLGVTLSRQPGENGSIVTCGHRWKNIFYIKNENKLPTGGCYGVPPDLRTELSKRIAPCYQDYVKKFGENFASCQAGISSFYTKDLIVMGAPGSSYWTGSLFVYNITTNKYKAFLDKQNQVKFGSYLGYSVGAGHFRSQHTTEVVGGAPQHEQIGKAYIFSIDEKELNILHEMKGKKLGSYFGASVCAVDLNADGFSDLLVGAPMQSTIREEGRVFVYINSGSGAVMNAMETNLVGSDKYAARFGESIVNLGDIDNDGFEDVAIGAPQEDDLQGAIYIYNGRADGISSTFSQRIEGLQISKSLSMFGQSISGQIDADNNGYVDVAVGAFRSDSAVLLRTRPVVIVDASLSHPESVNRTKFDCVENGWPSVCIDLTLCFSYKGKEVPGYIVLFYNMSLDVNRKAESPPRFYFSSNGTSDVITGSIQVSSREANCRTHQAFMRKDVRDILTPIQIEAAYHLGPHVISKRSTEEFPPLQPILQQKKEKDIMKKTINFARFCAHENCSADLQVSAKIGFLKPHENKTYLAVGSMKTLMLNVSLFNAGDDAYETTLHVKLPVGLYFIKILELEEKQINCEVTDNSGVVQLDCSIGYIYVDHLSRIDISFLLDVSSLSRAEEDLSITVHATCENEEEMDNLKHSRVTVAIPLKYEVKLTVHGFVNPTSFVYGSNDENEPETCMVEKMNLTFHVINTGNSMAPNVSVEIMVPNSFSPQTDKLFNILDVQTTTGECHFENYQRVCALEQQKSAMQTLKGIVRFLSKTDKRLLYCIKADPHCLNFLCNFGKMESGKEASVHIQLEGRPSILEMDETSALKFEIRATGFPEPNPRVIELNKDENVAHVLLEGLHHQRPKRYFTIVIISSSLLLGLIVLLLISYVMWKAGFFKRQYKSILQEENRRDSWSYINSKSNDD
Chain of VLA-4 (P05556 21-798 partner): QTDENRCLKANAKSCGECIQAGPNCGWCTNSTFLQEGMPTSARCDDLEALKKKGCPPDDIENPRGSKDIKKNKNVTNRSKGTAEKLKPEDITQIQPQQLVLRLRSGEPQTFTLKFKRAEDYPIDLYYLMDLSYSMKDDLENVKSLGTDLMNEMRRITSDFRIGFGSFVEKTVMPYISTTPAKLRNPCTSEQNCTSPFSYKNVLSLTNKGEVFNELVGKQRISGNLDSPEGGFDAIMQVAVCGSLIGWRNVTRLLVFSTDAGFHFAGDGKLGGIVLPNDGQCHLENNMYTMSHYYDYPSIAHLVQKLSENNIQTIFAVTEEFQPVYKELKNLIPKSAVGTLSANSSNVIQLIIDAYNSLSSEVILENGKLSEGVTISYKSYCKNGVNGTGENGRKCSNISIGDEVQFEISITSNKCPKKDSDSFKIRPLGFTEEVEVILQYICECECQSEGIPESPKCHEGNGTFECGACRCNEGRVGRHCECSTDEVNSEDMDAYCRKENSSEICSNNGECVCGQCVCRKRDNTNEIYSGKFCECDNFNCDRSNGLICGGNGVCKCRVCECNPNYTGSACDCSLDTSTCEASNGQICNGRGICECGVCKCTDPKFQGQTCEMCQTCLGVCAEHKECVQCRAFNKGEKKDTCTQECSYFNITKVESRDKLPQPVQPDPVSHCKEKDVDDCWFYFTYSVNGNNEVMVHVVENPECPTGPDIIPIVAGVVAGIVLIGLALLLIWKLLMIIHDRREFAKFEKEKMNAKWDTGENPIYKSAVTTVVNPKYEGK

For “VCAM 2D-IgG: soluble form of VCAM1: two N-terminal domains of VCAM1 fused to human IgG1 heavy chain constant region (hinge, CH2, CH3); SEQ ID NO: 5/12”, the “onset of diabetes in recipients of cells from diabetic donor mice” value in data set [1] (100 μg i.p. through day 17) is reported as “significantly inhibits the onset of diabetes”. The “serum level of fusion protein (ELISA)” value in data set [1] (100 μg/0.2 ml i.p. twice weekly through day 17) is “sufficient to saturate VLA4-positive cells”. In data set [1] (by day 30 post-transfer, recipients of cells from diabetic donors, 100 μg i.p. through day 17, n=5), the incidence of diabetes is listed as 60%. Besides, the “airways hyper-responsiveness (AHR)” value was “blockage of the AHR; also recorded: inhibition of AHR” in data set [2] (setting [4]); “complete blockage; also recorded: complete inhibition” in data set [2] (setting [5]); “no blockage; also recorded: no inhibition” in data set [2] (setting [6]); “no effect” in data set [2] (setting [7]); “blocked; also recorded: inhibition of AHR” in data set [2] (setting [8]). Besides, the “late phase response (LPR)” value was “partial blockage; also recorded: significant but partial inhibition” in data set [2] (setting [4]); “complete blockage; also recorded: complete inhibition” in data set [2] (setting [5]); “blocked completely; also recorded: complete inhibition” in data set [2] (setting [6]); “significant but partial inhibition” in data set [2] (setting [7]); “partial blockage; also recorded: significant but partial inhibition” in data set [2] (setting [8]). Further, in data set [2] (all dosing regimens, ten animals), the “late phase response (LPR) versus placebo control” value was “partial or complete inhibition”.

B1: HP1/2: murine anti-human VLA-4 monoclonal antibody (IgG1) obtained from Biogen, Inc.; VH/VK in SEQ ID NO: 1-4 (antibody, listed as Mus musculus, V domains shown)
VH: EVKLQQSGAELVKPGASVKLSCTASGFNIKDTYMHWVKQRPEQGLEWIGRIDPASGDTKYDPKFQVKATITADTSSNTAWLQLSSLTSEDTAVYYCADGMWVSTGYALDFWGQGTTVTVSS
VL: SIVMTQTPKFLLVSAGDRVTITCKASQSVTNDVAWYQQKPGQSPKLLIYYASNRYTGVPDRFTGSGYGTDFTFTISTVQAEDLAVYFCQQDYSSPYTFGGGTKLEI
For B1, in data set [3] (Example III, Day 0 to Day 10), the “change in acute inflammation index” value is “significant (p<0.01) decrease”. The “Day 0 AII (acute inflammation index)” value in data set [3] (Example III, before the trial began, 1 mg HP1/2 per day i.v. Days 0-7) was 2 (3×) and 1 (2×); in data set [3] (Example IV (repeat trial), Day 0), 2. For the same molecule, the “Day 10 AII (acute inflammation index)” value is 1 and 0 (4×) in data set [3] (Example III, end of trial, 1 mg HP1/2 per day i.v. Days 0-7); 0 (5×) and 1 and 2 in data set [3] (Example IV (repeat trial), Day 10). Moreover, the “Day 0 AII, MEAN” value is 1.6 in data set [3] (Example III, mean of 5 treated CTTs, before the trial began) and 2.0 in data set [3] (Example IV, mean of 7 treated CTTs, Day 0). The “Day 10 AII, MEAN” value turned out to be 0.2 in data set [3] (Example III, mean of 5 treated CTTs, end of trial) and 0.43 in data set [3] (Example IV, mean of 7 treated CTTs, Day 10). Further, the “change in acute inflammation” value in data set [3] (Example IV, Day 0 to Day 10) is “significant decrease”. Moreover, the “inflammation of biopsied intestinal tissue” value in data set [3] (summary statement) is “significant reduction in inflammation”. The “VLA-4-mediated T cell activation” value with VLA-4 is reported as “not to promote”. Moreover, the “binding to CTT PBLs” value in the data set with CTT VLA4 on CTT PBLs is given as “bound”. In the data set on VCAM-1-expressing cells, the “leukocyte adhesion to VCAM-1-expressing cells” value is “block”.

The record behind these values is patent publication US7176184B2, “Treatment for inflammatory bowel disease with a fibronectin polypeptide” (Biogen Idec MA Inc., priority 1992, dated 2007).
